{"source": "patent US20050059087A1", "about": "“Antibodies directed to the deletion mutants of epidermal growth factor receptor and uses thereof” (priority 2003, published 2005)", "molecules": {"B1": {"name": "129A7: B-cell culture supernatant well (antibody, V domains shown)", "VH": "QVQLVESGGGVVQPGRSLRLSCAASGFTLSSYGMHWVRQAPGKGLEWVAVMSYDGSKEDYADSVKGRFTISRDNSENTLYLQMNSLRAEDTAVYYCVSEGYCSSRSCYKYYYYGMDVWGQGTTVTVSS", "VL": "DIVMTQSPLSLPVTPGEPASISCRSSQSLLYRNGNNYLDWYLQKPGQSPQLLIYLGSNRASGVPDRFSGSGSGTDFTLNISRVEAEDVGHYYCMQALQTPRTFGQGTKVEIK"}}, "key": {"[1]": {"molecular_target": "T1, EGFRvIII-peptide-OVA (Homo sapiens, UniProt P00533, DELINS30-297G)", "T1 construct": "purchased R&D Systems (custom synthesis); host or cells: synthetic peptide", "assay": "B-cell culture supernatant ELISA on EGFRvIII-peptide-OVA", "assay_type": "binding", "conditions": "Table 3.8", "experimental": "B-cells from the above-discussed animals were harvested and cultured. Those secreting EGFRvIII-peptide specific antibodies were isolated as described in Babcook et al., Proc. Natl. Acad. Sci. USA, 93:7843-7848 (1996). ELISA was used to identify primary EGFRvIII-peptide-OVA-specific wells. About 5 million B-cells were cultured from XenoMouse animals in 245 96 well plates at 500 or 150 or 50 cells/well, and were screened on EGFRvIII-peptide-OVA to identify the antigen-specific wells."}, "[2]": {"molecular_target": "T2, OVA (Gallus gallus, UniProt P01012)", "T2 sequence (P01012 1-386)": "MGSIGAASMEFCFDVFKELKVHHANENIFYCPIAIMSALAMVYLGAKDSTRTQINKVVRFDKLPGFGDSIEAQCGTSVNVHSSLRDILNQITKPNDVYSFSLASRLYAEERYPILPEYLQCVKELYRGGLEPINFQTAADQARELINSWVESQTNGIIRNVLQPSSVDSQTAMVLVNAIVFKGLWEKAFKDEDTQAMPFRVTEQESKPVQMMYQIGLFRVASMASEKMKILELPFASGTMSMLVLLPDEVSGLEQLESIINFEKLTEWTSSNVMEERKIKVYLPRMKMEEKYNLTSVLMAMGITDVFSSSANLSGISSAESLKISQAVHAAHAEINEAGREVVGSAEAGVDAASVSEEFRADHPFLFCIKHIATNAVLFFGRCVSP", "assay": "B-cell culture supernatant control ELISA on OVA", "assay_type": "binding", "conditions": "Table 3.8", "from_the_text": "244 of EGFRvIII-peptide-OVA-Elisa positive wells of OD>0.5 were screened again on EGFRvIII-peptide-OVA and on OVA to confirm that they were EGFRvIII-peptide specific."}, "[3]": {"molecular_target": "T3, native form of EGFRvIII stably expressed on NR6 cells (NR6 M cells) (Homo sapiens, UniProt P00533, DELINS30-297G)", "T3 construct": "expressed in transfected cells; host or cells: NR6 murine fibroblasts (NR6 M)", "assay": "Native cell binding assay by FMAT, NR6 M cells", "assay_type": "cell-based", "conditions": "total fluorescent intensity"}, "[4]": {"molecular_target": "T4, NR6 Wt cells (NR6 cells expressing EGF receptor) (Homo sapiens, UniProt P00533)", "T4 construct": "expressed in transfected cells; host or cells: NR6 murine fibroblasts (NR6 Wt)", "assay": "Native cell binding assay by FMAT, NR6 Wt cells", "assay_type": "cell-based", "conditions": "total fluorescent intensity"}, "[5]": {"molecular_target": "T5, EGFRvIII receptor on NR6 M cells (Homo sapiens, UniProt P00533, DELINS30-297G)", "T5 construct": "expressed in transfected cells; host or cells: NR6 murine fibroblasts (NR6 M)", "assay": "Internalization assay of B-cell culture supernatants (FMAT, glutathione)", "assay_type": "cell-based", "experimental": "The top 60 native binding B cell culture supernatants were further assayed for their ability to internalize the receptor. NR6 M cells were seeded at 8000 cells/well into 96 well FMAT plates and incubated overnight. Media was removed and 10-15 μl B-Cell culture supernatant in a total volume of 30 μl media, in duplicate was added. Next, 15 μl of secondary antibody (SS Alexa 647 anti-human IgG Fab at 1.5 μg/ml final concentration) was added and the mixture was incubated on ice for 1 hr. An irrelevant B-Cell Culture supernatant was used to see the effect of the culture media. Human anti-EGFRvIII mAb 13.2.1 was used as a positive control starting at 1 μg/ml (final concentration) and negative control was PK 16.3.1 (human anti-KLH IgG2 antibody) at the same concentration. After incubation, the cells were washed with cold PBS, 50 μl media was added to all of the wells, one of the duplicates were incubated at 37° C. for 30 mins while the other duplicate remained on ice. After the incubations media was removed, 100 ul of cold 50 mM glutathione was added to the set incubated at 37° C. and 100 μl of cold media added to the other set, both sets were then left on ice for 1 hr. The cells were then washed with 100 μl cold PBS and then fixed with 1% paraformaldehyde and read in FMAT. The results were expressed as % intermalized, calculated as total fluorescence in the presence of glutathione/total fluorescence in the absence of glutathione X 100."}}}
{"molecule": "B1", "values": [{"measurement": "1′ VIII-pep-OVA OD", "setting": "[1]", "result": 2.1501}, {"measurement": "2′ VIII-pep-OVA OD", "setting": "[1]", "result": 2.8208}, {"measurement": "OVA OD", "setting": "[2]", "result": 0.1515}, {"measurement": "FMAT native binding to NR6 M cells", "setting": "[3]", "result": 84024}, {"measurement": "FMAT native binding to NR6 Wt cells", "setting": "[4]", "result": 0}, {"measurement": "With glutathione FL1 × count", "setting": "[5]; 37° C. for 30 mins, then 50 mM glutathione", "result": 8708}, {"measurement": "% internalized, (glut+/glut−) × 100", "setting": "[5]; NR6 M cells, 37° C. 30 mins", "result": 31.5, "unit": "%"}, {"measurement": "No glutathione FL1 × count", "setting": "[5]; set kept on ice, no glutathione", "result": 27648}]}
